# Measurements published in paper PMC5072174.
# Target: fluorescein-conjugated N-terminal histone H3 peptide with trimethylation at the K9 position (UniProt P68431)
# Assay: fluorescence polarisation
row,Kd [µM],Substance
1,> 100,"Mpp8 chromodomain with F59 replaced by 3,4,5-trifluorophenylalanine (from UniProt Q99549 55-116) (domain or fragment)"
2,12,"Mpp8 chromodomain with F59 replaced by 3,5-difluorophenylalanine (from UniProt Q99549 55-116) (domain or fragment)"
3,> 200,Mpp8 chromodomain with F59 replaced by pentafluoro-phenylalanine (from UniProt Q99549 55-116) (domain or fragment)
